# Like-named read-outs stand apart in the source and are kept apart here.
# B1: LEM 2/15: selective allosteric inhibitory antibody of MT1-MMP from LEM-2/15 hybridoma cells; Fab fragment given to mice at 3 mg/kg (antibody, V domains shown)
# VL: LVIDVLMTQTPLSLPVGLGDQASISCRSSQSIVHSNGNTYLEWYLQKPGQSPKLLIYKVSNRFSGVPDRFSGSGSGTDFTLKISRVEAEDLGVYYCFQGSHAPYTFGGGTKLEIKR
# VH: EVKLVESGGGLVKPGGSLKLSCAASGFIFSNYAMSWVRQTPEKRLEWVATISGGGRNIYSLDSVKGRFTFFRDNARNTLYLQMSSLRSEDTAMYFCSRENYGSSFTYWGQGTLVTVS
# modifications: Fab fragment; LEM-2/15.8 antibody VH amino acid sequence; LEM-2/15.8 antibody VL amino acid sequence
# How the values were obtained:
# [1] = system: PR8 influenza virus followed by S. pneumoniae; type: in vivo, C57BL/6J mice
# [2] = system: influenza A/Puerto Rico/8/34 (A/PR/8/34, H1N1); type: in vivo, C57BL/6J mice
# S. pneumoniae = type: in vivo, C57BL/6J mice
# [3] = system: influenza A/Puerto Rico/8/34 (A/PR/8/34, H1N1); type: in vivo, C57BL/6J mice; remark: listed apart in the source
# [4] = system: collagenolytic activity in lung section; design: species or system C57BL/6J mice; details: mouse, in vivo
# [5] = system: influenza A/Puerto Rico/8/34 (A/PR/8/34, H1N1); type: in vivo, C57BL/6J mice; remark: listed apart in the source
# MT1-MMP = MT1-MMP (Homo sapiens, UniProt P50281); details: cited from earlier work
# [6] = sub-lethal PR8 influenza, 74 hours post infection
# [7] = influenza-infected mice, versus control treated
molecule,measurement,setting,value
"CCOC(=O)C1=C[C@@H](OC(CC)CC)[C@H](NC(C)=O)[C@@H](N)C1 [Tamiflu, Oseltamivir phosphate, reference compound]",alveolar and bronchial structures / collateral damage in lung ECM (AirSEM),"[1]; mouse, in vivo",ineffective in preventing collateral damage in the lung ECM
same,"survival rates and clinical scores, preventive treatment (comparison in words)","[1]; mouse, in vivo",same survival rates and clinical scores as the group that received anti-MT1-MMP
same,"survival, therapeutic treatment","[1]; mouse, in vivo",20%
same,"tissue integrity, ECM morphology and collagen structure (AirSEM)","[2]; mouse, in vivo",same destructive lung tissue and ECM phenotypes were observed
same,bacteremia and dissemination of S. pneumoniae from lungs to systemic circulation and spleen,"S. pneumoniae; mouse, in vivo",developed sepsis
same,reduction of viral burden in whole-lung homogenates (qPCR),[3]; versus vehicle-treated mice,10-100 fold
B1,"survival rates and clinical scores, preventive treatment (comparison in words)","[1]; co-infection, treatment one day before infection (-1)",equally effective in preventing co-infection induced mortality
same,"survival, therapeutic treatment","[1]; co-infection, treatment one day post infection (+1)",70%
same,proteolysis by functional in situ zymography,[4],significant attenuation of proteolysis
same,"collagen type I fibers (two-photon second harmonic generation, 3D analysis)",[2]; [6],more abundant
same,laminin degradation in infected lungs (immunostaining),[2]; [6],protected laminin
same,"tissue integrity, ECM morphology and collagen structure (AirSEM)",[2]; [6],protected tissue integrity
same,bacteremia and dissemination of S. pneumoniae from lungs to systemic circulation and spleen,"S. pneumoniae; co-infected mice, 2 days post bacterial infection, listed as MT1-MMP inhibitory antibody",reduced spread of bacteria
same,bacteremia and dissemination of S. pneumoniae from lungs to systemic circulation and spleen,"S. pneumoniae; co-infected mice, 2 days post bacterial infection, listed as anti-MT1-MMP inhibitor",did not develop systemic bacterial dissemination
same,"effect on viral burden, early phases of infection",[3]; 24 hours post infection,minimal effect
same,"effect on viral burden, later stages",[3]; later stages of infection,no effect was discernible
same,recruitment of macrophages and neutrophils to infected lungs (FACS),"[5]; 74 hours post-infection, versus control antibody",no detectable differences
same,IL-1β level in BALF,[5]; [7],strongly induced in influenza-infected mice regardless of MT1-MMP activity
same,TNF-α level in BALF,[5]; [7],strongly induced in influenza-infected mice regardless of MT1-MMP activity
same,concentration at which the inhibitory antibody of MT1-MMP is effective,MT1-MMP; inhibits collagenase activity of MT1-MMP expressed on the cell surface,nano-molar concentrations
same,interference with proMMP-2 activation and enzyme dimerization on the cell surface,MT1-MMP; selectivity of inhibition,without significantly interfering

# Source: patent US11400156B2, “Methods of preventing secondary infections” (Yeda Research and Development Co. Ltd., priority 2015, dated 2022)
